{"source": "patent US20150119254", "about": "“NUCLEIC ACID FRAGMENT BINDING TO TARGET PROTEIN” (RIKEN, published 2015)", "key": {"IFN-gamma [1]": {"target": "T1, IFN-gamma (UniProt P01579 P01579:24-166)", "T1 sequence (P01579 24-166, one chain of several)": "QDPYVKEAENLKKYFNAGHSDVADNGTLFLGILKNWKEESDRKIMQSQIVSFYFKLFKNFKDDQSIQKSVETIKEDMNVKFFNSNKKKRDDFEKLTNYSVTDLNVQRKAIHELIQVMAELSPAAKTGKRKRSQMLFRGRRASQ", "assay": "SPR; 150 nM IFN-gamma, 930 s", "conditions": "tags: PeproTech; chain copies: 2", "protocol": "(§1) FIGS. 19A to 19C show the SPR sensorgrams wherein 50 nM, 100 nM, or 150 nM IFN-γ was injected. […] Each sensorgram was normalized to the molecular weight of a DNA fragment bound with SPR, the molecular weight of an injected protein, and the amount of the SPR-bound DNA fragment immobilized (RU). The injection time is 480 seconds. The dissociation time is 480 seconds.\n(§2) Five types of sequences were selected from the sequences shown in Table 12 and analyzed for their IFN-γ-binding ability by surface plasmon resonance assay and 57-mer DNA fragments (Table 13) truncated at a primer region. A previously reported 57-mer DNA fragment comprising the DNA sequence of IFN-γ was also prepared and analyzed as a control."}, "VEGF-165 [2]": {"target": "T2, VEGF-165 (Homo sapiens, UniProt P15692-4 P15692-4:27-191)", "T2 sequence (P15692 other isoform, or with tags, fused parts or gaps)": "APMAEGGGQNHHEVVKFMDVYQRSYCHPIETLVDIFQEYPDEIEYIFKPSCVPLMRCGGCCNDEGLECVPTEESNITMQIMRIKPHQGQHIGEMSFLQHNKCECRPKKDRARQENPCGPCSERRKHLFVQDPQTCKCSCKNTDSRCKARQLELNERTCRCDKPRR", "assay": "SPR; 10 nM VEGF-165, 930 s", "conditions": "tags: PeproTech; chain copies: 2 (dimer, concentrations stated in terms of dimer)", "protocol": "as §1, with “15A” for “19A”, “15C” for “19C”, “2.5” for “50”, “5” for “100”, “10” for “150”, “VEGF-165” for “IFN-γ”\nas §2, with “8” for “12”, “VEGF-165-binding” for “IFN-γ-binding”, “resonance (SPR)” for “resonance”, “assay using BIACORE 3000 (GE Healthcare Japan Corp.)” for “assay”, “9)” for “13)”, “VEGF-165” for “IFN-γ”"}, "VEGF-165 [3]": {"target": "T2, VEGF-165", "assay": "SPR; previously reported aptamer control", "conditions": "tags: PeproTech; chain copies: 2 (dimer, concentrations stated in terms of dimer); label: 5' biotin-dT", "protocol": "For comparison, 98-mer (full length) N43Ds-09-1, full-length DNA fragments N43Ds-09-1(AT) and N43Ds-09-1(G) with the artificial base Ds replaced with a natural base, and a control DNA fragment reported as a VEGF-binding DNA aptamer (VEGF binding DNA 35, 35 mer) were also assayed under the same conditions. As in the full length binding analysis of Example 2, each DNA fragment having biotinylated T added to the end for the direct immobilization of the DNA fragment onto an SA chip (GE Healthcare Japan Corp.) was prepared by chemical synthesis and gel purification. For the immobilization of each DNA fragment onto the sensor chip, a DNA solution diluted with a PBS solution to 25 nM was subjected to folding treatment (90° C. for 3 min→60° C. for 3 min→25° C.), and Nonidet P-40 was then added thereto at a final concentration of 0.05%. The resulting DNA solution (5 μl; corresponding to 1 min) was injected to the SA chip at a flow rate of 5 μl/min to immobilize the DNA fragment onto the chip. […]\nThe interaction between the immobilized DNA fragment and VEGF-165 was detected under monitoring by the injection of 12.5 nM, 25 nM, 37.5 nM, 50 nM, 62.5 nM, and 75 nM VEGF-165 solutions (diluted with buffer solution A; in terms of dimer) at the Kinetic Injection mode. […]"}, "IFN-gamma [4]": {"target": "T1, IFN-gamma", "assay": "SPR; Bound 0.14", "conditions": "tags: PeproTech; chain copies: 2"}, "VEGF-165 [5]": {"target": "T2, VEGF-165", "assay": "SPR; 25 C", "conditions": "tags: PeproTech; chain copies: 2 (dimer, concentrations stated in terms of dimer)"}, "VEGF-165 [6]": {"target": "T2, VEGF-165", "assay": "SPR; existing aptamer control; 25 C", "conditions": "tags: PeproTech; chain copies: 2 (dimer, concentrations stated in terms of dimer)"}, "VEGF-165 [7]": {"target": "T2, VEGF-165", "assay": "SPR; printed as uM, evidently pM; existing aptamer control", "conditions": "tags: PeproTech; chain copies: 2 (dimer, concentrations stated in terms of dimer)", "protocol": "as §2, with “8” for “12”, “VEGF-165-binding” for “IFN-γ-binding”, “resonance (SPR)” for “resonance”, “assay using BIACORE 3000 (GE Healthcare Japan Corp.)” for “assay”, “9)” for “13)”, “VEGF-165” for “IFN-γ”\n(§3) The DNA fragments used in the assay were subjected to curve fitting using BiaEvaluation software attached to Biacore 3000 and reaction models of Langmuir with mass transfer."}, "IFN-gamma [8]": {"target": "T1, IFN-gamma", "assay": "SPR; existing aptamer control", "conditions": "tags: PeproTech; chain copies: 2"}, "VEGF-165 [9]": {"target": "T2, VEGF-165", "assay": "SPR; 25 C", "conditions": "tags: PeproTech; chain copies: 2 (dimer, concentrations stated in terms of dimer)", "protocol": "as §2, with “8” for “12”, “VEGF-165-binding” for “IFN-γ-binding”, “resonance (SPR)” for “resonance”, “assay using BIACORE 3000 (GE Healthcare Japan Corp.)” for “assay”, “9)” for “13)”, “VEGF-165” for “IFN-γ”\nas §3", "remark": "listed apart in the source"}, "VEGF-165 [10]": {"target": "T2, VEGF-165", "assay": "SPR; random control", "conditions": "tags: PeproTech; chain copies: 2 (dimer, concentrations stated in terms of dimer)"}}}
{"binder": "IF11A-57 (ssDNA) DNA: ATCAGTCCACCTATGTGGGTTGGATGGGGTGTATGTTAGTAGGGCTAAGGAGGTGG", "values": [{"measurement": "binding signal", "setting": "IFN-gamma [1]", "value": 0.46, "unit": "bound ratio"}]}
{"binder": "VG02aA-57 (ssDNA) DNA: ATCAGTCCACATCGAGCGTGAGGTCCGAAAGGCGACTCTTATAACATCAAGTAATG", "values": [{"measurement": "binding signal", "setting": "VEGF-165 [2]", "value": 0.01, "unit": "bound ratio"}]}
{"binder": "VG01A-57 (ssDNA) DNA: ATCAGTCCACAAAGTGCTGGGTCCGAATGGCGGGGGGTTAGGCCTCTTTGGGGCGG", "values": [{"measurement": "binding signal", "setting": "VEGF-165 [2]", "value": 0.37, "unit": "bound ratio"}]}
{"binder": "VG02bA-57 (ssDNA) DNA: ATCAGTCCACATACGCGGGGGTGTTGAAGGGTTAGTCGGAAGTAGTGTGTACAGAG", "values": [{"measurement": "binding signal", "setting": "VEGF-165 [2]", "value": 0.31, "unit": "bound ratio"}]}
{"binder": "TTGCACTCTGTGGGGGTGGACGGGCCGGGTAGATA (ssDNA)", "note": "[VEGF binding DNA 35]", "values": [{"measurement": "Kd", "setting": "VEGF-165 [3]", "value": "> 100", "unit": "nM"}]}
{"binder": "TCGGGTCATTTAATAATGTAGGTATGGGCTAGGCAGCTAGTGGAT (ssDNA)", "note": "[IFd1-3A-45]", "values": [{"measurement": "Kd", "setting": "IFN-gamma [4]", "value": "> 200", "unit": "nM"}]}
{"binder": "GTAAACTGCGTCCGAAGGGGCATGCAGTGAACCCGAATGGGTCCG (ssDNA)", "note": "[VGd1-2A-45]", "values": [{"measurement": "Kd", "setting": "VEGF-165 [5]", "value": 0.5, "unit": "nM"}]}
{"binder": "CGATCGTATCAGTCCACAAGCCCGTCTTCCAGACAAGAGTGCAGGGC (ssDNA)", "note": "[contVG-47]", "values": [{"measurement": "Kd", "setting": "VEGF-165 [6]", "value": 0.044, "unit": "nM"}]}
{"binder": "ATCGTATCAGTCCACAAGCCCGTCTTCCAGACAAGAGTGCAGGGC (ssDNA)", "note": "[contVG-45]", "values": [{"measurement": "Kd", "setting": "VEGF-165 [6]", "value": 0.081, "unit": "nM"}]}
{"binder": "contVG-57 (ssDNA) DNA: TCTGTCAATCGATCGTATCAGTCCACAAGCCCGTCTTCCAGACAAGAGTGCAGGGC", "values": [{"measurement": "Kd", "setting": "VEGF-165 [7]", "value": 0.046, "unit": "nM"}]}
{"binder": "IF07aA-57 (ssDNA) DNA: ATCAGTCCACTCCTTCTGTCATAGGGCAGGCGCATTTGGTGTAGAGTTTATCTTGG", "values": [{"measurement": "binding signal", "setting": "IFN-gamma [1]", "value": 0.19, "unit": "bound ratio"}]}
{"binder": "IF07bA-57 (ssDNA) DNA: ATCAGTCCACTCGGGTCGTTTAATAATGTAGGTATGGGCTAGGCAGCTAGTGGATG", "values": [{"measurement": "binding signal", "setting": "IFN-gamma [1]", "value": 0.05, "unit": "bound ratio"}]}
{"binder": "IF04A-57 (ssDNA) DNA: ATCAGTCCACTAATCAGGAAGAAGATAGGGTTTGTCTTATGTTGCCACGCTGGGAG", "values": [{"measurement": "binding signal", "setting": "IFN-gamma [1]", "value": 0.08, "unit": "bound ratio"}]}
{"binder": "contIF-57 (ssDNA) DNA: TTCTGTCAATCGATCGTATCAGTCCACAATGGGGTTGGTTGTGTTGGGTGTTGTGT", "values": [{"measurement": "Kd", "setting": "IFN-gamma [8]", "value": 67, "unit": "nM"}]}
{"binder": "VG20A-57 (ssDNA) DNA: TCAGTCCACGGTAAACTGAGTCCGAAGGGGCATGCAGTGAACCCGAATGGGTCCGG", "values": [{"measurement": "Kd", "setting": "VEGF-165 [9]", "value": 0.22, "unit": "nM"}]}
{"binder": "VG08A-57 (ssDNA) DNA: ATCAGTCCACGAGATGGATGGTAGTGGCCGAACGGGGGGGATGGAGAAGCTGGCTG", "values": [{"measurement": "binding signal", "setting": "VEGF-165 [2]", "value": 0.01, "unit": "bound ratio"}]}
{"binder": "ATGCTAGAGCATTGCGTAGAAGCTTGATATGTTGCTGGCCCGGAC (ssDNA)", "note": "[Random-45]", "values": [{"measurement": "binding signal", "setting": "VEGF-165 [10]", "value": 0.01, "unit": "bound ratio"}]}
